Laboratory results published in the Immune Epitope Database (IEDB).

Key:
HLA-B*18:01 [1] = assay: IEDB peptide-MHC binding, purified MHC/competitive/radioactivity; filed as Kd, often an IC50 or EC50 that approximates it; ≥ and ≤ were set here for values at or beyond the usual limits of such assays
HLA-B*40:01 = assay: as above
HLA-B*40:02 = assay: as above
HLA-B*44:02 = assay: as above
HLA-B*44:03 = assay: as above
HLA-B*45:01 = assay: as above
HLA-A*02:12 = assay: IEDB peptide-MHC binding, purified MHC/direct/fluorescence; filed as Kd, often an IC50 or EC50 that approximates it; ≥ and ≤ were set here for values at or beyond the usual limits of such assays; details: source organism: Choclo virus
HLA-A*03:01 = assay: as above; details: source organism: Choclo virus
HLA-B*58:01 = assay: as above; details: source organism: Orthohantavirus andesense
HLA-A*26:01 = assay: IEDB peptide-MHC binding, purified MHC/competitive/fluorescence; filed as Kd, often an IC50 or EC50 that approximates it; ≥ and ≤ were set here for values at or beyond the usual limits of such assays; details: source organism: Choclo virus
HLA-B*15:01 = assay: as above; details: source organism: Choclo virus
HLA-B*15:17 = assay: as above; details: source organism: Choclo virus
HLA-B*18:01 [2] = assay: as above; details: source organism: Choclo virus
HLA-B*27:03 = assay: as above; details: source organism: Choclo virus
HLA-B*39:01 = assay: as above; details: source organism: Choclo virus
HLA-B*46:01 = assay: as above; details: source organism: Choclo virus
HLA-B*51:01 = assay: as above; details: source organism: Choclo virus
HLA-B*57:01 = assay: as above; details: source organism: Choclo virus
[3] = source organism: Mammarenavirus machupoense
[4] = source organism: Mammarenavirus choriomeningitidis
[5] = source organism: Lymphocytic choriomeningitis virus (strain Armstrong)
[6] = source organism: Mammarenavirus lassaense
[7] = source organism: Mammarenavirus brazilense
[8] = source organism: SARS coronavirus Tor2
[9] = source organism: Mammarenavirus juninense

ADMSKLLNL
Kd (HLA-B*18:01 [1]; [3]): ≥ 77500 nM
Kd (HLA-B*40:01; [3]): 6250 nM
Kd (HLA-B*40:02; [3]): 339 nM
Kd (HLA-B*44:02; [3]): 5440 nM
Kd (HLA-B*44:03; [3]): ≥ 51400 nM
Kd (HLA-B*45:01; [3]): ≥ 77700 nM

ADYLSCSHF
Kd (HLA-B*18:01 [1]; [4]): ≥ 77500 nM
Kd (HLA-B*40:01; [4]): ≥ 47000 nM
Kd (HLA-B*40:02; [4]): 254 nM
Kd (HLA-B*44:02; [4]): 319 nM
Kd (HLA-B*44:03; [4]): 2740 nM
Kd (HLA-B*45:01; [4]): 17700 nM

AEALGPFQS
Kd (HLA-B*18:01 [1]; [5]): ≥ 77500 nM
Kd (HLA-B*40:01; [5]): ≥ 32100 nM
Kd (HLA-B*40:02; [5]): 4960 nM
Kd (HLA-B*44:02; [5]): 1320 nM
Kd (HLA-B*44:03; [5]): 6970 nM
Kd (HLA-B*45:01; [5]): 132 nM

FDAAASGGL
Kd (HLA-B*18:01 [1]; [6]): ≥ 65200 nM
Kd (HLA-B*40:01; [6]): ≥ 28500 nM
Kd (HLA-B*40:02; [6]): 3020 nM
Kd (HLA-B*44:02; [6]): ≥ 77900 nM
Kd (HLA-B*44:03; [6]): ≥ 78100 nM
Kd (HLA-B*45:01; [6]): ≥ 32200 nM

FEEHLAPFMS
Kd (HLA-B*18:01 [1]; [7]): 3380 nM
Kd (HLA-B*40:01; [7]): 2360 nM
Kd (HLA-B*40:02; [7]): 2570 nM
Kd (HLA-B*44:02; [7]): ≥ 47400 nM
Kd (HLA-B*44:03; [7]): ≥ 70100 nM
Kd (HLA-B*45:01; [7]): 8780 nM

FEKMVSLLSV
Kd (HLA-B*18:01 [1]; [8]): 145 nM
Kd (HLA-B*40:01; [8]): 25.2 nM
Kd (HLA-B*40:02; [8]): 23.7 nM
Kd (HLA-B*44:02; [8]): 3280 nM
Kd (HLA-B*44:03; [8]): 6180 nM
Kd (HLA-B*45:01; [8]): 784 nM

FELTSMKYFV
Kd (HLA-B*18:01 [1]; [8]): ≥ 37900 nM
Kd (HLA-B*40:01; [8]): 2140 nM
Kd (HLA-B*40:02; [8]): 24.2 nM
Kd (HLA-B*44:02; [8]): 7160 nM
Kd (HLA-B*44:03; [8]): 4470 nM
Kd (HLA-B*45:01; [8]): 7780 nM

FESYVRPFVA
Kd (HLA-B*18:01 [1]; [6]): 982 nM
Kd (HLA-B*40:01; [6]): 5420 nM
Kd (HLA-B*40:02; [6]): 19.9 nM
Kd (HLA-B*44:02; [6]): ≥ 70200 nM
Kd (HLA-B*44:03; [6]): ≥ 32000 nM
Kd (HLA-B*45:01; [6]): 151 nM

GDVELLGTT
Kd (HLA-B*18:01 [1]; [6]): ≥ 77500 nM
Kd (HLA-B*40:01; [6]): ≥ 33700 nM
Kd (HLA-B*40:02; [6]): 5920 nM
Kd (HLA-B*44:02; [6]): ≥ 41800 nM
Kd (HLA-B*44:03; [6]): ≥ 52100 nM
Kd (HLA-B*45:01; [6]): 16600 nM

GERSRCYSL
Kd (HLA-B*18:01 [1]; [7]): ≥ 77500 nM
Kd (HLA-B*40:01; [7]): 3380 nM
Kd (HLA-B*40:02; [7]): 51.2 nM
Kd (HLA-B*44:02; [7]): ≥ 77900 nM
Kd (HLA-B*44:03; [7]): ≥ 78100 nM
Kd (HLA-B*45:01; [7]): ≥ 77700 nM

QELYSPLFLI
Kd (HLA-B*18:01 [1]; [8]): 4910 nM
Kd (HLA-B*40:01; [8]): 690 nM
Kd (HLA-B*40:02; [8]): 10.7 nM
Kd (HLA-B*44:02; [8]): 7.01 nM
Kd (HLA-B*44:03; [8]): 7.36 nM
Kd (HLA-B*45:01; [8]): 45.6 nM

REGVFVFNGT
Kd (HLA-B*18:01 [1]; [8]): ≥ 70500 nM
Kd (HLA-B*40:01; [8]): 677 nM
Kd (HLA-B*40:02; [8]): 274 nM
Kd (HLA-B*44:02; [8]): 1600 nM
Kd (HLA-B*44:03; [8]): 306 nM
Kd (HLA-B*45:01; [8]): 222 nM

SEAPNAKEEI
Kd (HLA-B*18:01 [1]; [8]): ≥ 27200 nM
Kd (HLA-B*40:01; [8]): 1180 nM
Kd (HLA-B*40:02; [8]): 3350 nM
Kd (HLA-B*44:02; [8]): 105 nM
Kd (HLA-B*44:03; [8]): 145 nM
Kd (HLA-B*45:01; [8]): 319 nM

SEAQMSIQL
Kd (HLA-B*18:01 [1]; [6]): 1100 nM
Kd (HLA-B*40:01; [6]): 11600 nM
Kd (HLA-B*40:02; [6]): 15.3 nM
Kd (HLA-B*44:02; [6]): 161 nM
Kd (HLA-B*44:03; [6]): 99.3 nM
Kd (HLA-B*45:01; [6]): 542 nM

SEILRTLGF
Kd (HLA-B*18:01 [1]; [9]): 115 nM
Kd (HLA-B*40:01; [9]): 4180 nM
Kd (HLA-B*40:02; [9]): 56.1 nM
Kd (HLA-B*44:02; [9]): 18.7 nM
Kd (HLA-B*44:03; [9]): 37.3 nM
Kd (HLA-B*45:01; [9]): 7590 nM

VEAVMYMGT
Kd (HLA-B*18:01 [1]; [8]): 2470 nM
Kd (HLA-B*40:01; [8]): ≥ 31300 nM
Kd (HLA-B*40:02; [8]): 1320 nM
Kd (HLA-B*44:02; [8]): ≥ 21900 nM
Kd (HLA-B*44:03; [8]): 6510 nM
Kd (HLA-B*45:01; [8]): 616 nM

VMGVIGFGF
Kd (HLA-A*02:12): ≥ 20000 nM
Kd (HLA-A*03:01): ≥ 20000 nM
Kd (HLA-B*58:01): 2190 nM
Kd (HLA-A*26:01): ≥ 20000 nM
Kd (HLA-B*15:01): ≥ 20000 nM
Kd (HLA-B*15:17): ≥ 20000 nM
Kd (HLA-B*18:01 [2]): ≥ 20000 nM
Kd (HLA-B*27:03): ≥ 20000 nM
Kd (HLA-B*39:01): ≥ 20000 nM
Kd (HLA-B*46:01): ≥ 20000 nM
Kd (HLA-B*51:01): ≥ 20000 nM
Kd (HLA-B*57:01): ≥ 20000 nM

YDFNKLTAL
Kd (HLA-B*18:01 [1]; [6]): 6780 nM
Kd (HLA-B*40:01; [6]): 5340 nM
Kd (HLA-B*40:02; [6]): 19.8 nM
Kd (HLA-B*44:02; [6]): 2270 nM
Kd (HLA-B*44:03; [6]): 9170 nM
Kd (HLA-B*45:01; [6]): ≥ 77700 nM
